Source: publication PMC11246345

How the values were obtained:
VEGF-A 165 = assay: ELISA
VEGF-A 189 = assay: ELISA

%relative binding activity (against a reference standard) (VEGF-A 165): 97%
%relative binding activity (against a reference standard) (VEGF-A 189): 97%
Substance: US-aflibercept (Fc fusion)
